Experiments:
[1] = biological target: full-length human Claudin 18.2 on MIA PaCa-2 cells (MIA PaCa-2+ Claudin 18.2) (human) (UniProt P56856); assay: cell-based or functional assay
[2] = biological target: Claudin 18.2 on CHO cells (CHO+ Claudin 18.2) (UniProt P56856); assay: flow cytometry on Claudin 18.2-expressing CHO cells (summary table)
CD3 on Jurkat cells = assay: flow cytometry on Jurkat cells, CD3 binding (T cell) (summary table)
Sequence of CD3 on Jurkat cells (P07766 23-207, chain 1 of 3): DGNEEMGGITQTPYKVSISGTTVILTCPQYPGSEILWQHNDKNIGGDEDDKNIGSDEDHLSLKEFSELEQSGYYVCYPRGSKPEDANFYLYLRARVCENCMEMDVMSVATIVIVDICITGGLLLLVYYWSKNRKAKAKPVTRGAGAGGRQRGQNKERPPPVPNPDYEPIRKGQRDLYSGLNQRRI
Sequence of CD3 on Jurkat cells (P09693 23-182, chain 2 of 3, further chain): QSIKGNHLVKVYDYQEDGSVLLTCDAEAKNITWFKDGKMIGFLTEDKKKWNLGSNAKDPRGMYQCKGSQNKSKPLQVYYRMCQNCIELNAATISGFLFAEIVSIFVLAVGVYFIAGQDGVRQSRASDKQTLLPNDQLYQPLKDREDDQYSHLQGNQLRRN
Sequence of CD3 on Jurkat cells (P04234 22-171, chain 3 of 3, further chain): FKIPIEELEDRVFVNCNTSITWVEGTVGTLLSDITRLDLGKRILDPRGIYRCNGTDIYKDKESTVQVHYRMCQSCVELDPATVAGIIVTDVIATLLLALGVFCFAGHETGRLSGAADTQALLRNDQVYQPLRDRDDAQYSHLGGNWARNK

Sequence of full-length human Claudin 18.2 on MIA PaCa-2 cells (MIA PaCa-2+ Claudin 18.2) (human) (P56856 other isoform, or with tags, fused parts or gaps limits assumed): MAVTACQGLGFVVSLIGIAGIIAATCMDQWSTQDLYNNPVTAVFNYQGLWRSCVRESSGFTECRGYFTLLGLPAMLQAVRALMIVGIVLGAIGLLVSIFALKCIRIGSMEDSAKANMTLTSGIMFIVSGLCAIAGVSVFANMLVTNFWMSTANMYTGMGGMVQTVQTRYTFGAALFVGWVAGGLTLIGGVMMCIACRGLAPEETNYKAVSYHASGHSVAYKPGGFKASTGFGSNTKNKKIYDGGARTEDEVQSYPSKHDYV
Sequence of Claudin 18.2 on CHO cells (CHO+ Claudin 18.2) (P56856 other isoform, or with tags, fused parts or gaps limits assumed): as above

- T cell activation EC50 (CD69-positive cells) [1]: 0.0345 µg/mL
- T cell activation EC50 (CD69-positive cells), unpurified supernatant [1]: 0.0577 µg/mL
- EC50 [2]: 0.047 µg/mL
- EC50 (CD3 on Jurkat cells): 0.485 µg/mL
Substance: AMG910 analog (bispecific antibody)
